Assay results as given in US20180224459A1.
Values belong to the substance of their own block, whether it stands above or below them.

Legend:
[1] = target: Green Fluorescent Protein (GFP), biotinylated and immobilized on streptavidin coated plates [GFP: P42212]; assay: competition ELISA on immobilized GFP; 1:1 mixture with GFPnb-BC2T as competitor, against GFPnb-BC2T alone; BC2nb-nLuc read-out
[2] = target: BC2T-mSA2-myc displayed on E. coli as a fusion to OmpX; assay: flow cytometry, induced E. coli displaying BC2T-mSA2-myc; mean of triplicate
[3] = target: HA-mSA2-BC2T-myc fusion displayed on yeast at the C-terminus of Aga2 (yeast) (UniProt P32781); assay: flow cytometry, induced yeast displaying HA-mSA2-BC2T-myc; mean of triplicate
[4] = target: HA-mSA2-BC2T-myc fusion displayed on yeast at the C-terminus of Aga2 (yeast) (UniProt P32781); assay: flow cytometry, induced yeast displaying HA-mSA2-BC2T-myc; co-treatment with Myc-ab-FITC; mean of triplicate
[5] = target: HA-mSA2-BC2T-myc fusion displayed on yeast at the C-terminus of Aga2 (yeast) (UniProt P32781); assay: flow cytometry, induced yeast displaying HA-mSA2-BC2T-myc; co-treatment with HA-ab-FITC; mean of triplicate
[6] = target: BC2T-mSA2-myc displayed on E. coli as a fusion to OmpX; assay: flow cytometry, induced E. coli displaying BC2T-mSA2-myc; co-treatment with Myc-ab-FITC; mean of triplicate

decrease in luminescence [1]: 50%
Substance: GFP-binding nanobody-His6 fusion protein (VHH)

FITC or GFP (+) [2]: 98.1%
FITC or GFP (+) [3]: 59.6%
Substance: BC2 nanobody-GFP fusion protein (from UniProt P42212 1-238) (VHH)

Cy5 (+) [4]: 70.9%
Cy5 (+) [5]: 71.2%
Cy5 (+) [6]: 98.7%
Cy5 (+) [2]: 98.6%
Cy5 (+) [3]: 71.1%
Substance: BC2 nanobody-Cy5 conjugate (VHH)
